Target: Human fibrinogen (human) (UniProt P02671)
Test: ELISA; Fg coated on wells (5 μg/ml, 0.5 μg/well); GST-vWbp or GST-Coa proteins in 1% BSA, 0.05% Tween 20, TBS, 1 h at room temperature; detected with HRP anti-GST; one-site fit, apparent KD, mean of three experiments

Human fibrinogen (human), sequence (P02671 36-866, chain 1 of 3): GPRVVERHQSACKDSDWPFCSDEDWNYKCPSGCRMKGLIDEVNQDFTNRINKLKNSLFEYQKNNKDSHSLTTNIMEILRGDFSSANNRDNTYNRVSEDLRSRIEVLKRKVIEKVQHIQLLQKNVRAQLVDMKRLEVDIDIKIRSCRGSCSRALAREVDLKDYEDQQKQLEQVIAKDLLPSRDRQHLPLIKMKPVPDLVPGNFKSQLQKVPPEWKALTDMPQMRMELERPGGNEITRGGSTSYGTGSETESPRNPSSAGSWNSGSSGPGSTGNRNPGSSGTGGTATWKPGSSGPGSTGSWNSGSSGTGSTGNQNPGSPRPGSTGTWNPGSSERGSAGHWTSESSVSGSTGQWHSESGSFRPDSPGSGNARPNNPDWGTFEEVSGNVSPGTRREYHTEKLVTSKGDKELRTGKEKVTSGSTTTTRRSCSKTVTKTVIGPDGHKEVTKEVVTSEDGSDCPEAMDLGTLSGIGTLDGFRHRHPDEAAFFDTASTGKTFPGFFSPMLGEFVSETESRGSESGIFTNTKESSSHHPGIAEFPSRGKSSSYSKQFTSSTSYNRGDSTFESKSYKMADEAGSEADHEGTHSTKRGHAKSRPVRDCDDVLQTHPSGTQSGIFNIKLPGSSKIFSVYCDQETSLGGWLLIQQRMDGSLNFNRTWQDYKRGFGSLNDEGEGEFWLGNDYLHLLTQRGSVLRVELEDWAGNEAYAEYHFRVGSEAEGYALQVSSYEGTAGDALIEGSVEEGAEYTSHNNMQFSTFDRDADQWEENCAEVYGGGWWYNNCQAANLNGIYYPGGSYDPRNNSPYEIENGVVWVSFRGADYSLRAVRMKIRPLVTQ
Human fibrinogen (human), sequence (P02675 45-491, chain 2 of 3, further chain): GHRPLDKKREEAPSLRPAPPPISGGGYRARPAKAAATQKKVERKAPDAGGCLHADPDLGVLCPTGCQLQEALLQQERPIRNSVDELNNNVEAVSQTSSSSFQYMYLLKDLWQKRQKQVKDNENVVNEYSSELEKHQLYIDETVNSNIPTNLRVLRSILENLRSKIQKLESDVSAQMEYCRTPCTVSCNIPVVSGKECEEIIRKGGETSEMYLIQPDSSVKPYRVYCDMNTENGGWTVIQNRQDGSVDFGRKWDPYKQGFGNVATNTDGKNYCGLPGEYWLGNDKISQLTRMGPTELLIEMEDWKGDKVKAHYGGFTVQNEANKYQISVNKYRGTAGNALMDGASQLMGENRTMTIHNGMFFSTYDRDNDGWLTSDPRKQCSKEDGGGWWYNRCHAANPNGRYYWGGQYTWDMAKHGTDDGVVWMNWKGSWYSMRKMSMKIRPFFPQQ
Human fibrinogen (human), sequence (P02679 27-453, chain 3 of 3, further chain): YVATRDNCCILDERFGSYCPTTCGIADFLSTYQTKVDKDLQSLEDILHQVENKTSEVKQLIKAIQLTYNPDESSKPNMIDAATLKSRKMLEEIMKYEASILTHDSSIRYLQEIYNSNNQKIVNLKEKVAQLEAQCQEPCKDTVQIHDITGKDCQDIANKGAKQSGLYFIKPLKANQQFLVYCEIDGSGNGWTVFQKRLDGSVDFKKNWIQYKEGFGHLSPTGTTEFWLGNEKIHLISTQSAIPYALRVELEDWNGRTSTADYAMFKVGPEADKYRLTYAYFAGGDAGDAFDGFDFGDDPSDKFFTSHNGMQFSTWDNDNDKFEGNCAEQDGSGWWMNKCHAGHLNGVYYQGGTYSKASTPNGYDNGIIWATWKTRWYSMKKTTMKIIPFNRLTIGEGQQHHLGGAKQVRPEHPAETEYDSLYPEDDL

Substance	Kd [nM]
GST-vWbp-N (N-terminal half of vWbp) (domain or fragment)	3.2
GST-vWbp-C (C-terminal half of vWbp) (domain or fragment)	38

— paper PMC6476931
